Experimental findings from paper PMC3973317, “Solution structure and tandem DNA recognition of the C-terminal effector domain of PmrA from Klebsiella pneumoniae” are described below.

Series [1] has as its target T1, PmrAC (C-terminal effector/DNA-binding domain of PmrA) (Klebsiella pneumoniae, UniProt W9BNR5 121-223).
T1 sequence: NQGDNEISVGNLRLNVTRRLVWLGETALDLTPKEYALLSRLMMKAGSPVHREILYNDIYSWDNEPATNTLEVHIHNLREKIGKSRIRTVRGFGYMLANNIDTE
Description: NMR PRE; Mn2+ or Ca2+; 2:1 protein:DNA; label does not affect interaction; 20 mM sodium phosphate, 30 mM NaCl, pH 6.0; FP with 12 nM 6-FAM DNA (temperature not stated); ITC plus 0.5 mM EDTA at 25 C; NMR at 298 K. Conditions: protein: recombinant; tags: N-terminal extra Met; chain copies: 2; label: EDTA spin label (Mn2+/Ca2+); blunt.

Series [2] deals with T1, PmrAC (C-terminal effector/DNA-binding …). Description: ITC; 2:1 protein:DNA; one-site fit; 0.5 mM EDTA; 20 mM sodium phosphate, 30 mM NaCl, pH 6.0; FP with 12 nM 6-FAM DNA (temperature not stated); ITC plus 0.5 mM EDTA at 25 C; NMR at 298 K. The note with it: protein: recombinant; tags: N-terminal extra Met; chain copies: 2; blunt. Background: Isothermal titration calorimetry measures the heat released or taken up as one component is titrated into another.

The target is the same in series [3]. Description: fluorescence polarization; 20 mM sodium phosphate, 30 mM NaCl, pH 6.0; FP with 12 nM 6-FAM DNA (temperature not stated); ITC plus 0.5 mM EDTA at 25 C; NMR at 298 K. Conditions: protein: recombinant; tags: N-terminal extra Met; chain copies: 2; label: 5' 6-FAM (fluorescence polarization); none (NMR); blunt.
The target is the same in series [4]. Description: NMR PRE; Mn2+ or Ca2+; 1:1; label does not affect interaction; 20 mM sodium phosphate, 30 mM NaCl, pH 6.0; FP with 12 nM 6-FAM DNA (temperature not stated); ITC plus 0.5 mM EDTA at 25 C; NMR at 298 K. The note with it: protein: recombinant; tags: N-terminal extra Met; chain copies: 2; label: EDTA spin label (Mn2+/Ca2+); blunt.
Series [5] shares this target. In words: fluorescence polarization; two-site fit, first site (half1); 20 mM sodium phosphate, 30 mM NaCl, pH 6.0; FP with 12 nM 6-FAM DNA (temperature not stated); ITC plus 0.5 mM EDTA at 25 C; NMR at 298 K. The note with it: protein: recombinant; tags: N-terminal extra Met; chain copies: 2; label: 5' 6-FAM (fluorescence polarization); none (NMR); blunt. A general note: In fluorescence polarisation assays a small probe gives low polarisation when free and higher when bound to something large.

Series [6] shares this target. In words: ITC; 1:1 stoichiometry; 0.5 mM EDTA; 20 mM sodium phosphate, 30 mM NaCl, pH 6.0; FP with 12 nM 6-FAM DNA (temperature not stated); ITC plus 0.5 mM EDTA at 25 C; NMR at 298 K. The note with it: protein: recombinant; tags: N-terminal extra Met; chain copies: 2; blunt.
The target is the same in series [7]. Description: NMR titration; range over residues; 20 mM sodium phosphate, 30 mM NaCl, pH 6.0; FP with 12 nM 6-FAM DNA (temperature not stated); ITC plus 0.5 mM EDTA at 25 C; NMR at 298 K. The note with it: protein: recombinant; tags: N-terminal extra Met; chain copies: 2; blunt.

B1: box1 dT-EDTA at THY28 (dsDNA)
DNA 1: ATTTCTTAATATTATCCTAAGCAAG
DNA 2: CTTGCTTAGGATAATATTAAGAAAT
modifications: dT-EDTA at THY28 (strand 2, position 3)
On to B1, for which the binding result in series [1] is “binds”.

B2: box2 (dsDNA)
DNA 1: TCATTTTAATTTCGTTTAAGTCCG
DNA 2: CGGACTTAAACGAAATTAAAATGA
Consider B2, for which, in series [2], the Kd is 970 ± 130 nM.

B3: box1a (dsDNA)
DNA 1: AATTTCTTAATATTAT
DNA 2: ATAATATTAAGAAATT
Turning to B3, the Kd in series [3] was 0.13 ± 0.01 µM.

B4: box1 dT-EDTA at THY4 (dsDNA)
DNA 1: ATTTCTTAATATTATCCTAAGCAAG
DNA 2: CTTGCTTAGGATAATATTAAGAAAT
modifications: dT-EDTA at T4 of strand 1
B4: the binding result in series [4] is “binds”.

B5: box1 (dsDNA)
DNA 1: ATTTCTTAATATTATCCTAAGCAAG
DNA 2: CTTGCTTAGGATAATATTAAGAAAT
With B5, in series [5], the Kd is 190 ± 10 nM.

B6: box2b (dsDNA)
DNA 1: CGTTTAAGTCCG
DNA 2: CGGACTTAAACG
As to B6, the figures for the Kd in series [6] and in series [7] were 36.5 ± 9.4 µM and 31.9 µM, respectively.

B7: box1b (dsDNA)
DNA 1: ATTATCCTAAGCAAGG
DNA 2: CCTTGCTTAGGATAAT
For B7, the Kd in series [3] turned out to be 9.3 ± 1.5 µM.

The Kd is a measure of binding affinity in units of concentration.
